The values below come from patent publication US20220002403A1.

In this assay the target is human ILT4 haplotype 5 expressed on mouse 3A9 T cells (human) (UniProt Q8N423). Kind of assay: cell-based or functional assay.
Sequence of human ILT4 haplotype 5 expressed on mouse 3A9 T cells (human) (Q8N423 other isoform, or with tags, fused parts or gaps): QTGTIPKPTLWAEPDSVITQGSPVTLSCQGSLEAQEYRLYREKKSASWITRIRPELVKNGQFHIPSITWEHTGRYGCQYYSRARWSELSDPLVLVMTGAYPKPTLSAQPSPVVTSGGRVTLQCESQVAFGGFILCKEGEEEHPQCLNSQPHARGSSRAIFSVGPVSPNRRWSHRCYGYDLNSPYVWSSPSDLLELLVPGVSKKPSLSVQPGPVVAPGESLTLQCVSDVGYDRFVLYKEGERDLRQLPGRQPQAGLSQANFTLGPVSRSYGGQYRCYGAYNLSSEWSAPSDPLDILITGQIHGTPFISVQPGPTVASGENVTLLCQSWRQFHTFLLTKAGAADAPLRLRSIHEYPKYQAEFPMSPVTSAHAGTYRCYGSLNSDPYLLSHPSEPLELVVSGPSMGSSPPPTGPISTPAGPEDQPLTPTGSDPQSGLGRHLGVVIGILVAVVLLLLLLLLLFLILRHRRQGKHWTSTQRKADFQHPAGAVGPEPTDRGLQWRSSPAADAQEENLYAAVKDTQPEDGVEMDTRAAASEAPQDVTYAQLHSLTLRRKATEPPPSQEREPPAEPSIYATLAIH

B1: 1E1(G4) (antibody, human IgG4 S228P, lambda, V domains shown)
VH: EVQLQQWGAGLLKPSETLSLTCAVYGGSFSGYYWSWIRQPPGKGLEWIGEINHAGSTNYNPSLKSRVTISVDTSKNQFSLKLSSVTAADTAVYYCARLPTRWVTTRYFDLWGRGTLVTVSS
VL: ESVLTQPPSVSGAPGQRVTISCTGSSSNIGAGYDVHWYQQLPGTAPKLLIYGDSNRPSGVPDRFSVSKSGASASLAITGLQAEDEADYYCQSFDNSLSAYVFGGGTQLTVLG
The molecule B1 gave an EC50 (IL-2 Repression Assay: rescue of IL-2 release from anti-CD3 stimulated ILT4 3A9 T cell transfectants, ELISA) of 0.43 µg/mL.
